The target in the assay is pyruvate kinase M2 (human (endogenous in HK-2)) (UniProt P14618). Briefly: cross-linking; proteins of HK-2 cells treated with vehicle or compound 3k; DSS 1 mM, room temperature, 30 min, quenched with 20 mM Tris; SDS-PAGE and Western blot for PKM2; more monomer and less dimer and tetramer with compound 3k. (A western blot detects proteins with antibodies after separation by electrophoresis.)

Chain of pyruvate kinase M2, P14618 1-531 (natural protein; other documents disagree on this pair) (P14618 whole entry): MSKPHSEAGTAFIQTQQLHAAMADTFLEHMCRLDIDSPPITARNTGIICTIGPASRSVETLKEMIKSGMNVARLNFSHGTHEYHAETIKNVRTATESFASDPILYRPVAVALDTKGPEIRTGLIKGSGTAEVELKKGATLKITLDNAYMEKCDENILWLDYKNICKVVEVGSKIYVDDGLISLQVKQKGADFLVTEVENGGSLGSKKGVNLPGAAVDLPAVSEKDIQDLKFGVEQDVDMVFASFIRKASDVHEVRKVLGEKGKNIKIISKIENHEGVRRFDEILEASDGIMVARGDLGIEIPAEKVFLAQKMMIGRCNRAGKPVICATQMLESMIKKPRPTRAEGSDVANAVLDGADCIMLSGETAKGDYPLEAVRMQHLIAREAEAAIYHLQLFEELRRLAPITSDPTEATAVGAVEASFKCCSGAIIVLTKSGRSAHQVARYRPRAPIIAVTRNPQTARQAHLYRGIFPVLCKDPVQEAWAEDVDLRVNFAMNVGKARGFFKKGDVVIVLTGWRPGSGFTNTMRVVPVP

A word on the stoichiometry N: it is the number of molecules, sites or subunits per partner or assembly. In the case of “pyruvate kinase M2, P14618 1-531 (natural protein; other documents disagree on this pair)”, the stoichiometry N was 2.

Source of the values: article PMC12803839.
